Measured values published in article PMC9095613.

What follows are substances tested against Tva-HA-Fc (assay: co-IP). Conditions: parent: est. 1.0; read off a plot.

Substance | ratio to parent
A-gp85-flag wt (soluble gp85 of ALV-A RSA) -201NFD | 0.8
A-gp85-flag wt (soluble gp85 of ALV-A RSA) -155PWVNPF | 0.07
A-gp85-flag wt (soluble gp85 of ALV-A RSA) -139S | 0.73
A-gp85-flag wt (soluble gp85 of ALV-A RSA) -266S | 0.43

These substances were tested against Tva-HA-Fc (chicken) (assay: not given). Conditions: not given.

Substance | blocking of viral entry: % GFP-positive DF-1 cells (FACS) after incubation with the gp85 protein and infection with RCASBP (A)-EGFP; Tva on DF-1 cells (Figure 6C) (% GFP-positive cells)
E-gp85-flag wt (soluble gp85 of ALV-E ev-1) (natural protein) | 31
A-gp85-flag wt (soluble gp85 of ALV-A RSA) (natural protein) | 0.21
